Experimental data from US20230047413A1 (Janssen / Centocor, published 2023).
Where “and” joins values, the source holds several entries; their conditions need not be identical. Equal values may be shown once.

Assays:
Peptide-5 = Peptide-5 (human, phosphoserine 210, phosphoserine 214, phosphothreonine 217 (tau 2N4R numbering); SCBiot and dPEG4 at the N-terminus; amide at the C-terminus); assay: SPR ProteOn, peptide captured, Fab as analyte; range of n=2; Peptide-5 (pS210/pS214/pT217); upper end of n=2 range
Chain of Peptide-5 (human, phosphoserine 210, phosphoserine 214, phosphothreonine 217 (tau 2N4R numbering); SCBiot and dPEG4 at the N-terminus; amide at the C-terminus) (peptide, as listed by the source): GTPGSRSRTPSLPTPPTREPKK
Experimental: (§1) The binding affinity of PT3 Fab towards each of the fourteen tau phosphopeptides shown in Table 6 was assessed by surface plasmon resonance (SPR) using a Bio-Rad ProteOn XPR36. Peptides were synthesized by standard chemical methods (New England Peptide) with short-chain biotin and a PEG4 moiety at the N-terminus. Biotinylated peptide was captured on a neutravidin-coated NLC biosensor chip and PT3 Fab was flowed over the surface to measure kinetic parameters.
(§2) All experiments were performed at 25° C. using phosphate buffered saline, pH 7.4, 0.005% Tween 20 (PBST) as both running buffer and sample dilution buffer. Prior to running samples, the NLC chip was conditioned by running PBST over the chip surface for 1 h. Approximately 5-10 RU of peptide was captured on the chip surface by diluting peptide to 10 ng/mL in PBST and injecting over the flow channels at 30 μL/min for 100 s. Serial dilutions of PT3 Fab (1.1-90 nM) were analyzed and, with the exception of Peptide-8, each concentration was measured in duplicate. After capture of peptides, the antibody titration was injected at 60 μL/min for 3 minutes (association phase), followed by 300 s of buffer only (dissociation phase).
(§3) The data were double referenced by subtraction of the interspot response and the curves generated by the buffer-only injection. […] The data were analyzed using a simple Langmuir 1:1 binding model.

Peptide-7 [1] = target: T1, Peptide-7 (human, phosphothreonine 212, phosphoserine 214 (tau 2N4R numbering); SCBiot and dPEG4 at the N-terminus; amide at the C-terminus); assay: SPR ProteOn, peptide captured, Fab as analyte; Peptide-7, phosphorylated at 212/214
Experimental: as §1, §2, §3

Peptide-2 = target: T2, Peptide-2 (human, phosphothreonine 212, phosphothreonine 217 (tau 2N4R numbering); short chain biotin (SCBiot) and dPEG4 at the N-terminus; amide at the C-terminus); assay: SPR ProteOn, peptide captured, Fab as analyte; range of n=2
T2 construct: also called pT212/pT217-tau peptide (Peptide-2)
Experimental: A subset of HFA-PT3 monoclonal antibody variants, selected based on biophysical characterization and ELISA binding to PHF, were analyzed by Surface Plasmon Resonance (SPR) with a ProteOn XPR36 for binding to the following phosphopeptides: pT212/pT217-tau peptide (Peptide-2, SEQ ID NO: 48) and pT212-tau peptide (Peptide-8, SEQ ID NO: 54). All experiments were performed at 25° C. using PBST, pH 7.4, (Bio-Rad Cat#176-2720) as both running buffer and sample dilution buffer.
Fab/peptide binding. Biotinylated peptide was captured on a neutravidin-coated NLC biosensor chip pre-conditioned with PBST, and Fab was flowed over the surface to measure kinetic parameters. Approximately 5-10 RU of peptide was captured on the chip surface by diluting peptide to 10 ng/mL in PBST and injecting over the flow channels at 30 μL/min for 100 s. Serial dilutions of PT3 Fab (1.1 nM to 90 nM) were injected at 60 μL/min for 3 minutes (association phase), followed by 300 s of buffer only (dissociation phase).
Data were double referenced by subtraction of the interspot response, and the curves generated by the buffer only injection. The chip surface was regenerated with 0.85% phosphoric acid, followed by PBST injection before the next antibody titration injection. Data processing and analysis were performed using instrument software. The data were fit using a simple Langmuir 1:1 binding model.

Peptide-6 = Peptide-6 (human, phosphothreonine 217 (tau 2N4R numbering); SCBiot and dPEG4 at the N-terminus; amide at the C-terminus); assay: SPR ProteOn, peptide captured, Fab as analyte; range of n=2; Peptide-6 (pT217 only); lower end of n=2 range
Experimental: as §1, §2, §3

Peptide-4 = Peptide-4 (human, phosphoserine 210, phosphothreonine 217 (tau 2N4R numbering); SCBiot and dPEG4 at the N-terminus; amide at the C-terminus); assay: SPR ProteOn, peptide captured, Fab as analyte; range of n=2
Experimental: as §1, §2
(§4) The data were double referenced by subtraction of the interspot response and the curves generated by the buffer-only injection. The chip surface was regenerated using a single injection of 0.85% phosphoric acid at 30 μL/min for 100 s contact time, followed by four injections of running buffer before the next antibody titration injection. The data processing and kinetic analysis were done using the instrument software. The data were analyzed using a simple Langmuir 1:1 binding model.

Peptide-8 = target: T3, Peptide-8 (human, phosphothreonine 212 (tau 2N4R numbering); SCBiot and dPEG4 at the N-terminus; amide at the C-terminus); assay: SPR ProteOn, peptide captured, Fab as analyte; n=1
T3 construct: also called pT212-tau peptide (Peptide-8)
Experimental: as §1, §2, §4

Peptide-7 [2] = target: T1, Peptide-7; assay: SPR ProteOn, peptide captured, Fab as analyte; range of n=2; Peptide-7 (pT212/pS214); upper end of n=2 range
Experimental: as §1, §2, §3

Kd (Peptide-5): 6.6 to 10.8 nM | Kd (Peptide-7 [1]): 13.5 nM | koff (Peptide-2): 4.93e-05 s⁻¹ and 7.84e-05 s⁻¹ | kon (Peptide-2): 491000 M⁻¹ s⁻¹ and 1.06e+06 M⁻¹ s⁻¹ | Kd (Peptide-6): 10.9 to 11.9 nM | Kd (Peptide-4): 6.48 to 6.71 nM | Kd (Peptide-8): 23 nM | koff (Peptide-8): 0.00646 s⁻¹ | kon (Peptide-8): 281000 M⁻¹ s⁻¹ | Kd (Peptide-7 [2]): 11.3 to 15.7 nM
B1: PT3 Fab (B187) (Fab, V domains shown)
VH: EVKLVESGGDLVKPGGSLKLSCAASGFTFSSYAMSWVRQNPEKRLEWVASISKGGNTYYPNSVKGRFTISRDNARNILYLQMSSLRSEDTALYYCARGWGDYGWFAYWGQVTLVTVSA
VL: DIKMTQSPSSMYASLGERVTITCKASQDINRYLNWFQQKPGKSPKTLIYRANRLLDGVPSRFSGSGSGQDYSLTISSLDYEDMGIYYCLQYDEFPLTFGDGTKLELK
notes: Chimeric Fab: mouse variable regions, human IgG1/kappa constant region, 6xHis tag at the C-terminus of the heavy chain; also called mouse parental Fab of PT3
